Laboratory results reported in patent US7947876B2 (Nippon Paper Industries Co., Ltd., priority 2004, dated 2011).
Ends that are not written are not given here.

Tested on: mouse islet
Experiment: Thermal stability, activity measured by cAMP generation using mouse islet
Type: cell-based
Settings: 15 min at 100° C.; for stability for thermal treatment (activity by cAMP generation): 10 μg/ml in 0.2% BSA solution, versus non-thermal treated control
Method: Further, trypsin treatment was performed, and a monomer GLP-1 derivative was obtained. […] To these thermal treated substances, non-thermal treated substances were prepared similarly as a control. Then, with respect to these substances, the activity was measured by cAMP generation using mouse islet. […] On the other hand, as the synthetic peptide was heat-stable, the 5 linked peptide expressed in rice was estimated to have changed by thermal denaturation to a tertiary structure which would not be easily digested by trypsin.

Substance | stability for thermal treatment (activity by cAMP generation) | activity lower than that of non-thermally treated (cAMP generation) (rice in distilled water, then extraction and trypsin treatment, FIG. 8)
synthetic native GLP-1: native GLP-1 obtained by synthesis [reference compound] | stable | –
[Ser^8,Gln^26, Asn^34]-GLP-1 (HSEGTFTSDVSSYLEGQAAQEFIAWLVNGR; ends and bridges not checked) [synthetic GLP-1 derivative] | stable | –
[Ser^8,Gln^26, Asn^34]-GLP-1 (HDEFERHSEGTFTSDVSSYLEGQAAQEFIAWLVNGRG; Glucagon-like peptide 1; UniProt P01275 92-128, looked up, variant A8S K26Q K34N) | – | about 33%
